Experimental data: US20120064106A1

Biological target: TLR5 on RAW 424 (TLR5+) cells
Experiment: cell-based or functional assay

| Substance | TNF-α production by RAW 424 (TLR5+) cells, half-maximal stimulation |
| --- | --- |
| P. aeruginosa type B flagellin (strain PAO1), recombinant full-length (from UniProt P72151 1-488) (ligand) | 40 µM |
| P. aeruginosa type A flagellin (strain PAK), recombinant full-length (from UniProt P21184 2-394) (ligand) | 1.6e-05 µM |
